Legend:
[1] = target: T1, DExH1 (Arabidopsis thaliana, UniProt F4ILR7 1-995); assay: MST; preferred substrate (3' tail rG4); EC50 only in figure; MST: 20 nM FAM-RNA, buffer not in material; pull-down: 20 mM Tris-HCl pH 7.5, 300 mM KCl, 0.1% Tween-20, 2 mM EDTA, RNase inhibitor, 4 °C 4 h; details: protein: recombinant; tags: 6xHis-SUMO removed; label: 3'-FAM; G4, 3' ss tail 15 nt
T1 sequence: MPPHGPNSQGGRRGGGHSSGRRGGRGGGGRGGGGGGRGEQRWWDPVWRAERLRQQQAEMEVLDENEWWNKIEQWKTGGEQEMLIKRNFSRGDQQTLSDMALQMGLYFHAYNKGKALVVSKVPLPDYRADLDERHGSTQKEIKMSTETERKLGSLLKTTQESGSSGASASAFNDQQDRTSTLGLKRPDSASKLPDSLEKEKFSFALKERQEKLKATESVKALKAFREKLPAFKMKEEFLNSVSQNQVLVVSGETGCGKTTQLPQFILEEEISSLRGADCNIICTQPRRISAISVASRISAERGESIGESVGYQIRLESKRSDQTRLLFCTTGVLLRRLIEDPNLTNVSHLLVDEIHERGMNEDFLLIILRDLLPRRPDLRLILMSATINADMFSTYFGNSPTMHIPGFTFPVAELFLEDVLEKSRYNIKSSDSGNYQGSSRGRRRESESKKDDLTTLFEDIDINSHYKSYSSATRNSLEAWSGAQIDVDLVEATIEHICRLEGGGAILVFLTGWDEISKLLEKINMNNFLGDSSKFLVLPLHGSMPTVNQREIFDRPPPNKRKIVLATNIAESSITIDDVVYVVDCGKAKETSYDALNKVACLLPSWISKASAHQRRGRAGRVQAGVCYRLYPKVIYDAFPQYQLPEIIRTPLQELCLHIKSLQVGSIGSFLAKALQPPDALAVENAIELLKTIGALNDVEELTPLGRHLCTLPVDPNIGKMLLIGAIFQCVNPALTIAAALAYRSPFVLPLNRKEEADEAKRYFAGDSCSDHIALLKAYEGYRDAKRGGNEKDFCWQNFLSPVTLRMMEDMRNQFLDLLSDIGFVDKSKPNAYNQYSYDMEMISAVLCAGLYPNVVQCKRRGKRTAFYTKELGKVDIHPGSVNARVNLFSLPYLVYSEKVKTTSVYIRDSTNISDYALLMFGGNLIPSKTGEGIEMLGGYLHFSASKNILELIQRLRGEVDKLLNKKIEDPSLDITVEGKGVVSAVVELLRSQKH

[2] = target: T2, DExH15 (Arabidopsis thaliana, UniProt B9DFG3 1-1171); assay: as above; details: protein: recombinant; tags: 6xHis-SUMO removed; label: 3'-FAM; G4, 3' ss tail 15 nt
T2 sequence: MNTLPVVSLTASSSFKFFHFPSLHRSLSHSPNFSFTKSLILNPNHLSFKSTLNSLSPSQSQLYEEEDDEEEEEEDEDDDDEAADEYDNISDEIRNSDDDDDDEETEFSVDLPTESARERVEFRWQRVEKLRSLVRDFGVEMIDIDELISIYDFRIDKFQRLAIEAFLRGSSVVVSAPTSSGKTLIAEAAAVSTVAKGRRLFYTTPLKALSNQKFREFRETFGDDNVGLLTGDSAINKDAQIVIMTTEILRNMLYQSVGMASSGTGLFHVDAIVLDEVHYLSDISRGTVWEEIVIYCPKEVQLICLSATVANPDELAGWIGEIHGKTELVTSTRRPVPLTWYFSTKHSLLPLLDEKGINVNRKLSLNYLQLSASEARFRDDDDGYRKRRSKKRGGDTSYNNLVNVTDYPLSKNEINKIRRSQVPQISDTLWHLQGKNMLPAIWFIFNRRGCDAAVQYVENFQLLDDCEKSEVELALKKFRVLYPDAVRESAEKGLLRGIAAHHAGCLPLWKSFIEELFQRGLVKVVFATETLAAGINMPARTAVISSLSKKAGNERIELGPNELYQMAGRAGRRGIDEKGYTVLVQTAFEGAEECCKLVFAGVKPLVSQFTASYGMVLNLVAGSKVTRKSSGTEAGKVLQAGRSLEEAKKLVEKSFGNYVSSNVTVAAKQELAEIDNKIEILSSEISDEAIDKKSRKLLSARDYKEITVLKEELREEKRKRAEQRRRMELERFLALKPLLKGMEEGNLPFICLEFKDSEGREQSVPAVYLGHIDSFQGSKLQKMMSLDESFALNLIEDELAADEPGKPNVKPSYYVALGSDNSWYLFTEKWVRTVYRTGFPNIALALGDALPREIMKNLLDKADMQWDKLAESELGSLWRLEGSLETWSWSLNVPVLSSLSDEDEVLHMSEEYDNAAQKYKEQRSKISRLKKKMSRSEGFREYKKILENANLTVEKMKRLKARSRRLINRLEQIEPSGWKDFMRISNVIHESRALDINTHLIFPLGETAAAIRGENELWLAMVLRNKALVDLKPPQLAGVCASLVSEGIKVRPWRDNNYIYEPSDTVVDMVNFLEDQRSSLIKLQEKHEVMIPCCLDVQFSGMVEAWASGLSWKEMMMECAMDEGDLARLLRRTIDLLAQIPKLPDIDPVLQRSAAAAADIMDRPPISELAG

B1: G4S (3' tail rG4) (structured_RNA)
RNA: GGGAGGGAAGGGGAAGGGGUUUUUUUUUUUUUUU
[1]
  binding result: binds
[2]
  binding result: binds
